B1: Y^233→A (protein)
chain: ARDISSTNVTDLTVSPSKIEDGGKTTVKMTFDDKNGKIQNGDMIKVAWPTSGTVKIEGYSKTVPLTVKGEQVGQAVITPDGATITFNDKVEKLSDVSGFAEFEVQGRNLTQTNTSDDKVATITSGNKSTNVTVHKSEAGTSSVFYYKTGDMLPEDTTHVRWFLNINNEKSYVSKDITIKDQIQGGQQLDLSTLNINVTGTHSNAYSGQSAITDFEKAFPGSKITVDNTKNTIDVTIPQGYGSYNSFSINYKTKITNEQQKEFVNNSQAWYQEHGKEEVNGKSFNHTVHNINANAGIEGTVKGELKVLKQDKDTKAPIANVKFKLSKKDGSVVKDNQKEIEIITDANGIANIKALPSGDYILKEIEAPRPYTFDKDKEYPFTMKDTDNQGYFTTIENAKAIEKTKDVSAQKVWEGTQKVKPTIYFKLYKQDDNQNTTPVDKAEIKKLEDGTTKVTWSNLPENDKNGKAIKYLVKEVNAQGEDTTPEGYTKKENGLVVTNTE
B2: 212Q→A (protein)
chain: ITSGNKSTNVTVHKSEAGTSSVFYYKTGDMLPEDTTHVRWFLNINNEKSYVSKDITIKDQIAGGQQLDLSTLNINVTGTHSNYYSGQSAITDFEKAFPGSKITVDNTKNTIDVTIPQGYGSYNSFSINYKTKITNEQQKEFVNNSQAWYQEHGKEEVNGKSFNHTVHN
B3: 232N→A (protein)
chain: ITSGNKSTNVTVHKSEAGTSSVFYYKTGDMLPEDTTHVRWFLNINNEKSYVSKDITIKDQIQGGQQLDLSTLNINVTGTHSAYYSGQSAITDFEKAFPGSKITVDNTKNTIDVTIPQGYGSYNSFSINYKTKITNEQQKEFVNNSQAWYQEHGKEEVNGKSFNHTVHN
B4: 221T→K (protein)
chain: ITSGNKSTNVTVHKSEAGTSSVFYYKTGDMLPEDTTHVRWFLNINNEKSYVSKDITIKDQIQGGQQLDLSKLNINVTGTHSNYYSGQSAITDFEKAFPGSKITVDNTKNTIDVTIPQGYGSYNSFSINYKTKITNEQQKEFVNNSQAWYQEHGKEEVNGKSFNHTVHN
B5: 225N→K (protein)
chain: ITSGNKSTNVTVHKSEAGTSSVFYYKTGDMLPEDTTHVRWFLNINNEKSYVSKDITIKDQIQGGQQLDLSTLNIKVTGTHSNYYSGQSAITDFEKAFPGSKITVDNTKNTIDVTIPQGYGSYNSFSINYKTKITNEQQKEFVNNSQAWYQEHGKEEVNGKSFNHTVHN
B6: 223N→K (protein)
chain: ITSGNKSTNVTVHKSEAGTSSVFYYKTGDMLPEDTTHVRWFLNINNEKSYVSKDITIKDQIQGGQQLDLSTLKINVTGTHSNYYSGQSAITDFEKAFPGSKITVDNTKNTIDVTIPQGYGSYNSFSINYKTKITNEQQKEFVNNSQAWYQEHGKEEVNGKSFNHTVHN
B7: 193N→K (protein)
chain: ITSGNKSTNVTVHKSEAGTSSVFYYKTGDMLPEDTTHVRWFLKINNEKSYVSKDITIKDQIQGGQQLDLSTLNINVTGTHSNYYSGQSAITDFEKAFPGSKITVDNTKNTIDVTIPQGYGSYNSFSINYKTKITNEQQKEFVNNSQAWYQEHGKEEVNGKSFNHTVHN
B8: 233Y→A (protein)
chain: ITSGNKSTNVTVHKSEAGTSSVFYYKTGDMLPEDTTHVRWFLNINNEKSYVSKDITIKDQIQGGQQLDLSTLNINVTGTHSNAYSGQSAITDFEKAFPGSKITVDNTKNTIDVTIPQGYGSYNSFSINYKTKITNEQQKEFVNNSQAWYQEHGKEEVNGKSFNHTVHN
B9: 191F→A (protein)
chain: ITSGNKSTNVTVHKSEAGTSSVFYYKTGDMLPEDTTHVRWALNINNEKSYVSKDITIKDQIQGGQQLDLSTLNINVTGTHSNYYSGQSAITDFEKAFPGSKITVDNTKNTIDVTIPQGYGSYNSFSINYKTKITNEQQKEFVNNSQAWYQEHGKEEVNGKSFNHTVHN
B10: 189R→A (protein)
chain: ITSGNKSTNVTVHKSEAGTSSVFYYKTGDMLPEDTTHVAWFLNINNEKSYVSKDITIKDQIQGGQQLDLSTLNINVTGTHSNYYSGQSAITDFEKAFPGSKITVDNTKNTIDVTIPQGYGSYNSFSINYKTKITNEQQKEFVNNSQAWYQEHGKEEVNGKSFNHTVHN
B11: 175Y→K (protein)
chain: ITSGNKSTNVTVHKSEAGTSSVFYKKTGDMLPEDTTHVRWFLNINNEKSYVSKDITIKDQIQGGQQLDLSTLNINVTGTHSNYYSGQSAITDFEKAFPGSKITVDNTKNTIDVTIPQGYGSYNSFSINYKTKITNEQQKEFVNNSQAWYQEHGKEEVNGKSFNHTVHN
B12: 278N→K (protein)
chain: ITSGNKSTNVTVHKSEAGTSSVFYYKTGDMLPEDTTHVRWFLNINNEKSYVSKDITIKDQIQGGQQLDLSTLNINVTGTHSNYYSGQSAITDFEKAFPGSKITVDNTKNTIDVTIPQGYGSYNSFSIKYKTKITNEQQKEFVNNSQAWYQEHGKEEVNGKSFNHTVHN

Target: immobilized type II Col (Homo sapiens, UniProt P02458)
Assay: BIAcore analysis of CBD(30-529) and mutants on immobilized type II Col
Assay type: binding
Settings: not given
Description: The importance of amino acid residues Asn^232 and Tyr ^33 in the MSCRAMM for Col binding was examined by creating specific mutants of CBD (30-529) and characterizing the interactions of these mutants with immobilized type II Col using the BlAcore. In the mutations made, the identified amino acid residues were replaced individually, (N^232 →A, Y^233 →A) or as a pair, (N^232 →A:Y^233→A) with alanine, a residue that is not expected to interfere with the existing secondary structure. The corresponding base changes were made using overlap extension PCR™ as described and the sequence changes confirmed experimentally. The recombinant proteins containing the mutations were purified to homogeneity by metal ion chelating chromatography.
True equilibrium was not obtained during the injection time period due to the slow dissociation rate (koff). […] The dissociation phase gives information about the koff, and this rate is independent of the number of binding sites, analyte concentration, and flow rate. […] The association phase contains the information to determine the association rate koff the interaction, but it is also influenced by the dissociation rate, the number of binding sites for each interaction, and the concentration of the analyte. Because of the complexity of this interaction and the absence of measurable equilibrium data, it was not possible to determine the binding constant (KD), apparent binding ratio (BRapp), and kon.

Sequence of immobilized type II Col (P02458 182-1241 limits assumed): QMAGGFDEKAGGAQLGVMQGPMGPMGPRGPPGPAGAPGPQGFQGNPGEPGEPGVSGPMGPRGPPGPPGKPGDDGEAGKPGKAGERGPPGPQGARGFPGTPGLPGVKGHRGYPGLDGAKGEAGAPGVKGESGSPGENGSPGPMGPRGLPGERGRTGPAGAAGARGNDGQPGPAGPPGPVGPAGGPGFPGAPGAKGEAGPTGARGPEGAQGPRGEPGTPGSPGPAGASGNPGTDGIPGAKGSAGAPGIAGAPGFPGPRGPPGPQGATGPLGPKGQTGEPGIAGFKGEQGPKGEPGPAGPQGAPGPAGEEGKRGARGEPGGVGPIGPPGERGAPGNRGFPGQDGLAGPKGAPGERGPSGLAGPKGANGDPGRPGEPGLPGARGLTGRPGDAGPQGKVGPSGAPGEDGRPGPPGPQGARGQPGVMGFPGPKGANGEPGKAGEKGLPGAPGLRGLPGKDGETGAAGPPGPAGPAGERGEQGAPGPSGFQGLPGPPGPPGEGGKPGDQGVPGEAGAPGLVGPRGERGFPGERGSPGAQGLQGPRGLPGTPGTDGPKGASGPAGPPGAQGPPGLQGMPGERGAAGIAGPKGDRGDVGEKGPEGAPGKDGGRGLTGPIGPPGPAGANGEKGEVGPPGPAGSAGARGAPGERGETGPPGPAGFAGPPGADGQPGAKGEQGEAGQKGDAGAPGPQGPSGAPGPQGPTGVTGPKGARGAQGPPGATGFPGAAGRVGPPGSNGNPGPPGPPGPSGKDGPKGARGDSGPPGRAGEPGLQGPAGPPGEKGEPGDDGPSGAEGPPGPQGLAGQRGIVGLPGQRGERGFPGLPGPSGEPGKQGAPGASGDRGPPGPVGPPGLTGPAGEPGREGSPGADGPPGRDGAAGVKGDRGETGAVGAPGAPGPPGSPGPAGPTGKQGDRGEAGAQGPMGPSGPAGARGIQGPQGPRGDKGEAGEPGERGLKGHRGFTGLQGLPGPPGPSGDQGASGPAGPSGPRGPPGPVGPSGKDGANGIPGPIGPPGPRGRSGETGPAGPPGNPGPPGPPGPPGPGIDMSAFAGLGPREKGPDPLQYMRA

Molecule	affinity and apparent binding ratio compared to wild type
B1	even more significant decreasesin affinity and apparent binding ratio

Target: Col type II (Homo sapiens, UniProt P02458)
Assay: Biosensor analysis of CBD(151-318) and single-site mutants binding to Col type II
Settings: approximate binding ratio
Description: Mutational analysis was used to evaluate the putative binding site defined by the docking search. […] The surface area covered by the docked Col is about 1630 Å^2, which is 22% of the total solvent-accessible surface of CBD(172-318). […] Nine of these residues were mutated as well as two additional residues outside the putative binding region. The single-site lysine and alanine mutations were designed to disrupt the surface of the putative Col binding groove of wild type CBD(15 1-318). […] The MSCRAMM recognizes generic triple-helical structures (Speziale et al., 1986; Sakakibara et al., 1973; Heidemann and Roth, 1982), therefore, changes in the low-affinity dissociation constants were used to evaluate alterations in the binding of the mutant proteins (House-Pompeo et al., 1994).

Sequence of Col type II (P02458 182-1241 limits assumed): as above

Molecule	BR
B2	10
B3	12
B4	9
B5	10
B6	10
B7	12
B8	11
B9	10
B10	>13
B11	>20
B12	9

Same assay, conditions: in words

Molecule	Col-binding activity / affinity for Col compared with wild type CBD(151-318)
B2	did not differ significantly from that of wild type CBD(151-318)
B3	did not differ significantly from that of wild type CBD(151-318)
B4	did not differ significantly from that of wild type CBD(151-318)
B5	did not differ significantly from that of wild type CBD(151-318)

Target: type II Col (collagen type II)
Assay: biosensor analysis, equilibrium response; protein passed over covalently immobilized type II Col
Settings: not given

Sequence of type II Col (collagen type II) (P02459 182-1241): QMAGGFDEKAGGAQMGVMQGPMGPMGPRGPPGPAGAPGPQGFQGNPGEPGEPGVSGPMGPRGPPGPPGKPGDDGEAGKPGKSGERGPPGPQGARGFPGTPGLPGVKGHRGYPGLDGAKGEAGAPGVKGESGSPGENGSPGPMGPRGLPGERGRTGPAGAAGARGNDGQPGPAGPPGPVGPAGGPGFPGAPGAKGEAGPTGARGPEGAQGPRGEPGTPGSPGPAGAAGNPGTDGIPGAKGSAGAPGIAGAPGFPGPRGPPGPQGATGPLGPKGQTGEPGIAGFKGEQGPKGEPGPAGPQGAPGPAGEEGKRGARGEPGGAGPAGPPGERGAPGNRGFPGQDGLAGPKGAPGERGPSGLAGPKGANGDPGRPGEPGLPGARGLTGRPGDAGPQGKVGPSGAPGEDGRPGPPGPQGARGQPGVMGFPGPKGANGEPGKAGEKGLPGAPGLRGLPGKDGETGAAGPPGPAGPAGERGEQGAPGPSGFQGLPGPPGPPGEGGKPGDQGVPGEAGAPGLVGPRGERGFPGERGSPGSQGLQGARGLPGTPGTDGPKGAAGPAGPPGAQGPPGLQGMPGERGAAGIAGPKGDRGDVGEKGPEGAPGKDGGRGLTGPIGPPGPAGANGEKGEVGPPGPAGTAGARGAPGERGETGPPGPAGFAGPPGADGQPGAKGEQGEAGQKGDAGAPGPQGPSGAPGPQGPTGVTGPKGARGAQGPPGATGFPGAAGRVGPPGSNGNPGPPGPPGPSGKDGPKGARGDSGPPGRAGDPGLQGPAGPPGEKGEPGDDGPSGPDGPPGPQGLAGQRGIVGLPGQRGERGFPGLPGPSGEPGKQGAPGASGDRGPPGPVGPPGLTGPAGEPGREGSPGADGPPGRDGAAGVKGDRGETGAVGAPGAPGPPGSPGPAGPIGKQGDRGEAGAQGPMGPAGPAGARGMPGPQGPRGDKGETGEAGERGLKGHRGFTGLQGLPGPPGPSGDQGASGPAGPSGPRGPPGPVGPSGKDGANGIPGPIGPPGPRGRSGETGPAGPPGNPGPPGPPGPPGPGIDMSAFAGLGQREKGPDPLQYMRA

Molecule	BR (approximate binding ratio)
CBD(151-318) 175Y→K (from UniProt Q53654 151-318)	> 20
CBD(151-318) 189R→A (from UniProt Q53654 151-318)	> 13
CBD(151-318) 191F→A (from UniProt Q53654 151-318)	10
CBD(151-318) 193N→K (from UniProt Q53654 151-318)	12
CBD(151-318) 212Q→A (from UniProt Q53654 151-318)	10
CBD(151-318) 221T→K (from UniProt Q53654 151-318)	9
CBD(151-318) 223N→K (from UniProt Q53654 151-318)	10
CBD(151-318) 225N→K (from UniProt Q53654 151-318)	10
CBD(151-318) 232N→A (from UniProt Q53654 151-318)	12
CBD(151-318) 233Y→A (from UniProt Q53654 151-318)	11
CBD(151-318) 278N→K (from UniProt Q53654 151-318)	9
CBD(151-318), recombinant Col-binding domain of the S. aureus CBP (wild type) (from UniProt Q53654 151-318)	10

Test system: S. aureus strain Phillips
Assay: Mouse sepsis model, active immunization, intravenous challenge with S. aureus expressing CBP
Assay type: in vivo, mice
Settings: 100μg/mouse on days -31, -18, -7; 2.8×10^7 cfu/mouse i.v. day 0; end day 14
Description: Gram-positive bacteria related sepsis is on the increase. In fact between one-third and one-half of all cases of sepsis are caused by gram-positive bacteria, particularly S. aureus and S. epidermidis. In the United States, it can be estimated that over 200,000 patients will develop gram-positive related sepsis this year. […] Mice were immunized subcutaneously with either M55 or a control antigen (bovine serum albumin) and then challenged intravenously with S. aureus. Eighty-three percent (35/42) of the mice immunized with M55 survived compared to only 27% of the BSA immunized mice (12/45). This is a compilation of 3 separate studies.
Day -31: 100μg/mouse of a CBP Epitope (i.e. M17, M31, or M55) or BSA emulsified with Freund's Complete adjuvant (Difco Laboratories) as a control.
Day -18: 100μg/mouse of a CBP Epitope (ie. M17, M31, or M55) or BSA dissolved in sterile phosphate buffered saline (PBS)
Day -7: 100μg/mouse of a CBP Epitope (i.e. M17, M31, or M55) or BSA dissolved in PBS
Day 0: inoculate intravenously S. aureus strain Phillips (which expresses CBP) (Dose: 2.8×10^7 cfu/mouse)
Day 14: end of study; all surviving mice were euthanized.

Molecule	mice died/total
M17: recombinant S. aureus Col-binding MSCRAMM derivative, amino acids 151-297 of full length CBP (SEQ ID NO:2)	10/15
M31: recombinant S. aureus Col-binding MSCRAMM derivative, amino acids 61-343 of full length CBP (SEQ ID NO:4)	12/14

Same assay, conditions: in words

Molecule	protection against sepsis
full-length sequence: previously-identified full-length S. aureus CBP [reference compound]	does not confer protection against sepsis
